The record followed here is PMC7171158, “NusA directly interacts with antitermination factor Q from phage λ” (Scientific Reports, 2020).

Usually Kd stands for a measure of binding affinity in units of concentration.

For this experiment, the target named is T1, NusA acidic repeat 2 domain (NusA-AR2) (E. coli, UniProt P0AFF6 426-495).
T1 construct: acidic repeat 2 domain (C-terminal domain) of E. coli NusA
Description: NMR titration; 2H,15N-NusA-SKK titrated with NusA-AR2 and 15N-NusA-AR2 titrated with NusA-SKK (up to 1:7.5); 5 mm tubes; 298 K; 50 mM MOPS pH 6.5, 100 mM NaCl, 150 mM D-glucose, 5 mM DTT; two-state fit of chemical shift changes. The following applies: both partners purified.

B1: NusA-SKK (S1, KH1 and KH2 domains of NusA) (domain or fragment)
chain: not shown
As for B1, the Kd was below 341 µM.
